The text below walks through data of patent US20220242974A1 (QURE BIOTECHNOLOGY SHANGHAI, published 2022).

For the test, the target named is PD-L1-his fusion protein (Homo sapiens (Human), UniProt Q9NZQ7 19-238). As to the kind of experiment: ELISA, PD-L1-his coated, culture supernatant of the clone.
PD-L1-his fusion protein, sequence (Q9NZQ7 other isoform, or with tags, fused parts or gaps limits assumed): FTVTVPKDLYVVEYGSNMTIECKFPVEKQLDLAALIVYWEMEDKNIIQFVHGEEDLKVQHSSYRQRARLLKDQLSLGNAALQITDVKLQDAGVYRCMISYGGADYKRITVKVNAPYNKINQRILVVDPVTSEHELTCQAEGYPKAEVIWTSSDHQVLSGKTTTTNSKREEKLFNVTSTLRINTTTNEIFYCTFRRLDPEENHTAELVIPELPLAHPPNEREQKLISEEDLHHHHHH

B1: QP1147 nanobody (VHH)
VHH: QVQLVESGGGSVQAGGSLTLSCAVSGNTYSTKYMGWFRQAPGKEREGVAAILAGGRNTYYADSVKGRFTISQDNAKNTVYLQMNSLKPEDTAMYYCAADTRAAFWYIGPLNSDQYNIWGQGTQVTVSS
notes: as m59
On to B1, for which the binding result is “binds”.

B2: QP1149 nanobody (VHH)
VHH: QVQLVESGGGSVQAGGSLTLSCAVSGNTYSTNYMGWFRQAPGKEREGVAAILAGGRNTYYADSVKGRFTISQDNAKDTVYLQMNSLKPEDTAMYYCAADTRAAFWNIGPLNSDQYNIWGQGTQVTVSS
notes: as m59
As to B2, the binding result was “binds”.

B3: QP1159 nanobody (VHH)
VHH: QVQLVESGGGSVQAGGSLTLSCAVSGNTYSTKYMGWFRQAPGKEREGVAAILAGGRNTSYADSVKGRFTISQDNAKNTVYLQMNSLKPEDTAMYYCAADTRAAFWYIGPLNSDQYNIWGQGTQVTVSS
notes: as m59
As for B3, the binding result is recorded as “binds”.

B4: QP1157 nanobody (VHH)
VHH: QVQLVESGGGSVQAGGSLTLSCAVSGNTYSTNYMGWFRQAPGKEREGVAAILVGGRNTYYADPVKGRFTISQDNAKNLVYLQMNSLKPEDTAMYYCAADTRAAFWNIGPLNSDQYNIWGQGTQVTVSS
notes: as m59
Regarding B4, the binding result is reported as “binds”.

B5: QP1146 nanobody (VHH)
VHH: QVQLVESGGGSVQAGGSLTLSCAVSGNTYSTNYMGWFRQAPGKEREGVAAILVGGRNTYYADSVKGRFTISQDNAKNLVYLQMNSLKPEDTAMYYCAADTRAAFWNIGPLNSDQYNIWGQGTQVTVSS
notes: as m59
On to B5, for which the binding result is “binds”.

B6: QP1161 nanobody (VHH)
VHH: QVQLVESGGGSVQAGGSLTLSCAVSGNTYSTNYMAWFRQAPGKEREGVAAIRVGGRNTDYADSVKGRFTISQDNAKNTVYLQMNSLKPEDTAMYYCAADTRAAFWYIGPLNSDQYNIWGQGTQVTVSS
notes: as m59
With B6, the binding result is “binds”.

B7: QP1151 nanobody (VHH)
VHH: QVQLVESGGGSVQAGGSLTLSCAVSGNTYSTNYMGWFRQAPGKEREGVAAILTGGRNTYYADSVKGRFTISQDNAKNTVYLQMNSLKPEDTAMYYCAADTRAAFWNIGPLNSDQYNIWGQGTQVTVSS
notes: as m59
For B7, the binding result was “binds”.

B8: QP1156 nanobody (VHH)
VHH: QVQLVESGGGSVQAGGSLTLSCAVSGNTYSTKYMGWFRQAPGKEREGVAAILAGGRNTYYADSVKGRFTISQDSAKNTVYLQMNSLKPEDTAMYYCAADTRAAFWYIGPLNSDQYNSWGQGTQVTVSS
notes: as m59
For B8, the binding result is given as “binds”.

B9: QP1158 nanobody (VHH)
VHH: QVQLVESGGGSVQAGGSLTLSCAVSGNTYSTKYMGWFRQAPGKEREGVAAILAGGRNTYYADSVKGRFTISQDNAKNTVYLRMNSLKPEDTAMYYCAADTRAALWYIGPLNSDQYNTWGQGTQVTVSS
notes: as m59
On to B9, for which the binding result is given as “binds”.

B10: QP1143 nanobody (VHH)
VHH: QVQLVESGGGSVQAGGSLTLSCAVSGNTYSTKYMGWFRQAPGKEREGVAAILAGGRDTYYADSVKGRFTISQDNAKNTVYLQMNSLKPEDTAMYYCAADTRAAFWYIGPLNSDQYNIWGQGTQVTVSS
notes: as m59
As to B10, the binding result is “binds”.

B11: QP1153 nanobody (VHH)
VHH: QVQLVESGGGSVQAGGSLTLSCAVSGNTYSTKYMGWFRQAPGKEREGVAAILAGGRNTDYADSVKGRFTISQDNAKNTVYLQMNSLKPEDTAMYYCAADTRAAFWSIGPLNSDQYNIWGQGTQVTVSS
notes: as m59
In the case of B11, the binding result was “binds”.

B12: QP1160 nanobody (VHH)
VHH: QVQLVESGGGSVQAGGSLTLSCAISGNTYSTKYMGWFRQAPGKEREGVAAILAGGRNTYYADSVKGRFTISQDNAKNTVYLQMNSLKPEDTAMYYCAADARAAFWYIGPLNSDQYNIWGQGTQVTVSS
notes: as m59
B12: the binding result is on record as “binds”.

B13: QP1154 nanobody (VHH)
VHH: QVQLVESGGGSVQAGGSLTLSCAVSGNTYSTNYMAWFRQAPGKEREGVAAIRAGGRNTDYADSVKGRFTISQDNAKNTVYLQMNSLKPEDTAMYYCAADTRAAFWYIGPLNSDQYNIWGQGTQVTVSS
notes: as m59
On to B13, for which the binding result is on record as “binds”.

B14: QP1148 nanobody (VHH)
VHH: QVQLVESGGGSVQAGGSLTLSCAVSGNTYSTNYMGWFRQAPGKEREGVAAILAGGRNTAYADSVKGRFTISQDNAKNTVYLQMNSLKPEDTAMYYCAADTRAAFWNIGPLNSDQYNIWGQGTQVTVSS
notes: as m59
As for B14, the binding result is listed as “binds”.

B15: QP1150 nanobody (VHH)
VHH: QVQLVESGGGSVQAGGSLTLSCAVSGNTYSTKYMGWFRQAPGKEREGVAAILAGGRNTHYADSVKGRFAISQDNAKNTVYLQMNSLKPEDTAMYYCAADTRAAFWNIGPLNSDQYNIWGQGTQVTVSS
notes: as m59
Turning to B15, the binding result is reported as “binds”.

B16: QP1140 nanobody (VHH)
VHH: QVQLVESGGGSVQAGGSLTLSCVVSGNTYSTKYMGWFRQAPGKEREGVAAILAGGRNTYYADSVKGRFTISQDNAKNTVYLQMNSLKPEDTAMYYCAADTRAAFWNIGPLNSDQYNIWGQGTQVTVSS
notes: as m59
Take B16: the binding result is given as “binds”.

B17: QP1155 nanobody (VHH)
VHH: QVQLVESGGGSVQAGGSLTLSCEVSGSTYSTNYMGWFRQAPGKEREGVAAILAGGRNTDYADSVKGRFTISQDNAKNTVYLQMNSLKPEDTAMYYCAADTRAAFWYIGPLNSDQYNIWGQGTQVTVSS
notes: as m59
As for B17, the binding result was “binds”.

B18: QP1141 nanobody (VHH)
VHH: QVQLVESGGGSVQAGGSLTLSCAVSGNTYSTNAMGWFRQAPGKEREGVAAILGGGRNTYYADSVKGRFTISQDNAKNTVYLQMNSLKPEDTAMYYCAADTRAAFWNIGPLNSDQYNIWGQGTQVTVSS
notes: as m59
Regarding B18, the binding result is listed as “binds”.

B19: QP1152 nanobody (VHH)
VHH: QVQLVESGGGSVQAGGSLTLSCAISGNTYSTKYMGWFRQAPGKEREGVAAILAGGRNTYYADSVKGRFTISQDNAKNTVYLQMHSLKPEDTAMYYCAADTRAAFWYIGPLNSDQYNLWGQGTQVTVSS
notes: as m59
Turning to B19, the binding result is “binds”.

B20: QP1139 nanobody (VHH)
VHH: QVQLVESGGGSVQAGGSLTLSCAVSGNTYGTNAMGWFRQAPGKEREGVAAILGGGRNTYYADSVKGRFTISQDNAKNTVYLQMNSLKPEDTAMYYCAADTRAAFWNIGPLNSDQYNIWGQGTQVTVSS
notes: as m59
Regarding B20, the binding result is reported as “binds”.

B21: QP1145 nanobody (VHH)
VHH: QVQLVESGGGSVQAGGSLTLSCAVSGNTYSTKYMAWFRQAPGKEREGVAAILAGGRNTSYADSVKGRFTISQDNAKNTVYLQTNSLKPEDTAMYYCAADTRAAFWYIGPLNSHQYNIWGQGTQVTVSS
notes: as m59
As for B21, the binding result was “binds”.

B22: QP1142 nanobody (VHH)
VHH: QVQLVESGGGSVQAGGSLTLSCAVSGNTYSTNIMGWFRQAPGKEREGVAAILAGGRNTYYADSVKGRFTISQDNAKNTVYLQMNSLKPEDTAMYYCAADTRAAFWNIGPLNSDQYNIWGQGTQVTVSS
notes: as m59
Take B22: the binding result is given as “binds”.

B23: QP1129 nanobody (VHH)
VHH: QVQLVESGGGSVQSGGSLRLSCAASGYSSSRYSVGWFRQAPGKEREGVAGQTPRGTTTYADSVKDRFTISRDNAKNTVYLQMNSLKPEDTAMYYCAAGQALLWASLRQTSYQFWGQGTQVTVSS
notes: as m59
With B23, the binding result is given as “binds”.

B24: QP1163 nanobody (VHH)
VHH: QVQLVESGGGSVQSGGSLRLSCAASGFTYGTYAMSWFRQAPGKEREGVACIDIYGRTSYTDPVKGRFTISQDNAKNTLYLQMNSLKPEDTAMYYCAARDFGYCTASWVHAGFSRYWGQGTQVTVSS
notes: as m59
For B24, the binding result is listed as “binds”.

B25: QP1165 nanobody (VHH)
VHH: QVQLVESGGGSVQSGGSLRLSCAASGFTYGAYAMSWFRQAPGKEREGVACIDIYGRTSYTDPVKGRFTISQDNAKNTLYLQMNSLKPEDTAMYYCAARDFGYCTASWVHEGFSRYWGQGTQVTVSS
notes: as m59
For B25, the binding result was “binds”.

B26: QP1169 nanobody (VHH)
VHH: QVQLVESGGGSVQSGGSLRLSCAASGFTYGTYAMSWFRQAPGKEREGVACIDIYGRTSYTDPVKGRFTISQDNAKNTLYLQMNSLKPGDTAMYYCAARDFGYCTASWVHEGFSRYWGQGTQVTVSS
notes: as m59
For the molecule B26, the binding result is reported as “binds”.

B27: QP1164 nanobody (VHH)
VHH: QVQLVESGGGSVQSGGSLRLSCAASGFTYGTYAMSWFRQTPGKEREGVACIDIYGRTSYTDPVKGRFTISQDNAKNTLYLQMNSLKPEDTAMYYCAARDFGYCTASWVHEGFSRYWGQGTQVTVSS
notes: as m59
Take B27: the binding result is listed as “binds”.

B28: QP1168 nanobody (VHH)
VHH: QVQLVESGGGSVQSGGSLRLSCAASGFTYETYAMSWFRQAPGKEREGVACIDIYGRTSYTDPVKGRFTISQDNAKNTLYLQMNSLKPEDTAMYYCAARDFGYCTASWVHEGFSRYWGQGTQVTVSS
notes: as m59
For the molecule B28, the binding result is on record as “binds”.

B29: QP1121 nanobody (VHH)
VHH: QVQLVESGGGSVHAGGSLRLSCVRVSMYTYTGTCMAWFRQAPGKEREGVAGLWTGDGVTYYADSVKGRFTISQDDAKNTLYLQMDSLKPEDTAMYYCASNGMCGQYWALEDEYKYWGQGTQVTVSS
notes: as m59
Turning to B29, the binding result is “binds”.

B30: QP1130 nanobody (VHH)
VHH: QVQLVESGGGLVQPGGSLRLSCAASGFTFSTSTMMWVRRAPGKGLEWVSGIHNDGGPIAYADSVKGRFTISRDNAKNTLYLQMTSLKSEDTALYYCARGWYFSGDYVPMTQGTQVTVSS
notes: as m59
With B30, the binding result is on record as “binds”.

B31: QP1123 nanobody (VHH)
VHH: QVQLVESGGGSVQSGGSLRLSCAASGYTVRHYCMGWFRQTPGKEREGVASIDTFGIPKYADSVKGRFTISQDNAKNTLNLQMDSLKPEDTAMYFCAGRSYTNCRDGPPSASHYSHWGQGTQVTVSS
notes: as m59
Regarding B31, the binding result is reported as “binds”.
